Tests used:
CD14 (human) = CD14 (human) (UniProt P08571); assay: cell-based or functional assay
[1] = target: human TLR4 (Toll-like receptor 4) (human) (UniProt O00206); assay: cell-based or functional assay
Sequence of UniProt O00206 (O00206 24-839): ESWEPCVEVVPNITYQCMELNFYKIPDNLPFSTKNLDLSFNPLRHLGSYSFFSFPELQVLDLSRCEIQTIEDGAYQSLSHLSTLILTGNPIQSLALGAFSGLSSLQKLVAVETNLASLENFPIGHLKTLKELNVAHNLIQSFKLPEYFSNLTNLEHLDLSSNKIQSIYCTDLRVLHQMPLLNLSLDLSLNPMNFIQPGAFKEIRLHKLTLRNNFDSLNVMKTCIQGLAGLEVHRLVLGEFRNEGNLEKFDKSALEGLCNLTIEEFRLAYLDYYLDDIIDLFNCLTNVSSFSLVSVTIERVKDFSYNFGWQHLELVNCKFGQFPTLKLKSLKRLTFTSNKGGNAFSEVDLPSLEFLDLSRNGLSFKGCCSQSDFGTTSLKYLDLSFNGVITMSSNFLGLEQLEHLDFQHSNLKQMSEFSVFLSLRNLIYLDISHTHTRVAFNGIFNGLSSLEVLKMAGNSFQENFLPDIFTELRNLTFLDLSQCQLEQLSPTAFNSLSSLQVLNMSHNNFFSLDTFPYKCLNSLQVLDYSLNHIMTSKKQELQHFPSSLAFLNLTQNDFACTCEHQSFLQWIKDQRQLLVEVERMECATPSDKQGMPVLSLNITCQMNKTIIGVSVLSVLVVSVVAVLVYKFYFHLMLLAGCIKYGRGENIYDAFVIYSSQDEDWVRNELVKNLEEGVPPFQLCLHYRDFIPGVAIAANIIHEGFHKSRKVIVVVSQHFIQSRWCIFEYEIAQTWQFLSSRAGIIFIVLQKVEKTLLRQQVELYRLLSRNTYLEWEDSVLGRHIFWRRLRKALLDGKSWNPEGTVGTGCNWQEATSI

Sequence of UniProt P08571 (P08571 20-345): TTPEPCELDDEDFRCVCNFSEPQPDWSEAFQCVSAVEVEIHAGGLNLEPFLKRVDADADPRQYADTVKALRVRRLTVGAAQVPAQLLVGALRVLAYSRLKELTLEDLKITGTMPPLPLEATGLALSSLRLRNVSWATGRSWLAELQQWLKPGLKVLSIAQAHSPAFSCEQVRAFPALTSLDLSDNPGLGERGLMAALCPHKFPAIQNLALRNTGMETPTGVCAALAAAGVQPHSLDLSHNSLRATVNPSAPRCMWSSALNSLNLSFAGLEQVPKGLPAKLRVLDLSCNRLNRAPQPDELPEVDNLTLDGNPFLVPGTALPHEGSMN

Row | Substance | inhibition of TNF-alpha secretion by human PBMCs stimulated with Env-SU, cells preincubated with anti-CD14 antibody (CD14 (human)) | inhibition of TNF-alpha secretion by human PBMCs stimulated with Env-SU, cells preincubated with anti-TLR4 antibody [1]
1 | anti-CD14 neutralizing antibody (rhCD14, ref.: AB383, R&D Systems-UK) | 83% | –
2 | anti-human TLR4 monoclonal antibody HTA125 (eBioscience) | – | 37%

Source: patent publication US7666420
